{"source": "paper PMC6955313", "about": "(Proceedings of the National Academy of Sciences of the …, 2019)", "proteins": {"B1": {"name": "RsaA_(Full-Length), the 98-kDa surface-layer protein (SLP) from Caulobacter crescentus (natural protein)", "chain": "MAYTTAQLVTAYTNANLGKAPDAATTLTLDAYATQTQTGGLSDAAALTNTLKLVNSTTAVAIQTYQFFTGVAPSAAGLDFLVDSTTNTNDLNDAYYSKFAQENRFINFSINLATGAGAGATAFAAAYTGVSYAQTVATAYDKIIGNAVATAAGVDVAAAVAFLSRQANIDYLTAFVRANTPFTAAADIDLAVKAALIGTILNAATVSGIGGYATATAAMINDLSDGALSTDNAAGVNLFTAYPSSGVSGSTLSLTTGTDTLTGTANNDTFVAGEVAGAATLTVGDTLSGGAGTDVLNWVQAAAVTALPTGVTISGIETMNVTSGAAITLNTSSGVTGLTALNTNTSGAAQTVTAGAGQNLTATTAAQAANNVAVDGGANVTVASTGVTSGTTTVGANSAASGTVSVSVANSSTTTTGAIAVTGGTAVTVAQTAGNAVNTTLTQADVTVTGNSSTTAVTVTQTAAATAGATVAGRVNGAVTITDSAAASATTAGKIATVTLGSFGAATIDSSALTTVNLSGTGTSLGIGRGALTATPTANTLTLNVNGLTTTGAITDSEAAADDGFTTINIAGSTASSTIASLVAADATTLNISGDARVTITSHTAAALTGITVTNSVGATLGAELATGLVFTGGAGADSILLGATTKAIVMGAGDDTVTVSSATLGAGGSVNGGDGTDVLVANVNGSSFSADPAFGGFETLRVAGAAAQGSHNANGFTALQLGATAGATTFTNVAVNVGLTVLAAPTGTTTVTLANATGTSDVFNLTLSSSAALAAGTVALAGVETVNIAATDTNTTAHVDTLTLQATSAKSIVVTGNAGLNLTNTGNTAVTSFDASAVTGTGSAVTFVSANTTVGEVVTIRGGAGADSLTGSATANDTIIGGAGADTLVYTGGTDTFTGGTGADIFDINAIGTSTAFVTITDAAVGDKLDLVGISTNGAIADGAFGAAVTLGAAATLAQYLDAAAAGDGSGTSVAKWFQFGGDTYVVVDSSAGATFVSGADAVIKLTGLVTLTTSAFATEVLTLA"}}, "biological_target": "the molecule itself", "test": "time-resolved SAXS/diffraction", "data": [{"protein": "B1", "values": [{"measurement": "binding result", "result": "binds"}]}]}
